This is an account of results in article doi:10.1101/2022.11.30.518472.

Experiment [1] has as its target Uso1 CCD-His6x (pET21b-Uso1 CCD-His6x), coiled-coil domain (CC + CTR) (Aspergillus nidulans). Kind of experiment: AUC + other: dynamic light scattering.
The target in experiment [2] is Bos1-GST (pET21b-Bos1-GST), cytoplasmic domain of Bos1 (Aspergillus nidulans). Kind of experiment: pull-down.
Experiment [3] addresses Uso1(E6K/G540S)-His6x, full length (pET21b-Uso1(E6K/G540S)-His6x) (Aspergillus nidulans). Briefly: AUC + other: dynamic light scattering.
Experiment [4] has as its target Uso1(E6K/G540S)ΔCTR-His6x (pET21b-Uso1(E6K/G540S)ΔCTR-His6x) (Aspergillus nidulans). Kind of experiment: AUC + other: dynamic light scattering.
Experiment [5] deals with Uso1-HA3, full length, native protein of Aspergillus (Aspergillus nidulans). Briefly: SEC.
The target of experiment [6] is Bet1-GST (pET21b-Bet1-GST), cytoplasmic domain of Bet1 (Aspergillus nidulans). Briefly: pull-down.
Experiment [7] addresses Uso1-His6x, full length (pET21b-Uso1-His6x) (Aspergillus nidulans). Kind of experiment: AUC + other: dynamic light scattering.
The target is the same in experiment [8]. Kind of experiment: SEC. For orientation: In gel filtration, larger molecules generally elute earlier.
Experiment [9] concerns the target Uso1ΔCTR-His6x (pET21b-Uso1ΔCTR-His6x) (Aspergillus nidulans). Kind of experiment: AUC + other: dynamic light scattering.

For the substance “Uso1 CCD-His6x (pET21b-Uso1 CCD-His6x), coiled-coil domain (CC + CTR) (domain or fragment)”, the stoichiometry N in [1] stood at 2.
For the substance “Uso1(E6K/G540S)-His6x, full length (pET21b-Uso1(E6K/G540S)-His6x) (natural protein)”, the fold increase of the protein retained, against wild-type Uso1 in experiment [2] turned out to be 5 fold. Moreover, in experiment [3], the stoichiometry N is 2.
For “Uso1(E6K/G540S)ΔCTR-His6x (pET21b-Uso1(E6K/G540S)ΔCTR-His6x) (domain or fragment)”, the stoichiometry N in experiment [4] was found to be 2.
In the case of “Uso1-HA3, full length, native protein of Aspergillus (natural protein)”, the stoichiometry N in experiment [5] came to 2.
In [6], “Uso1-His6x, full length (pET21b-Uso1-His6x) (natural protein)” came in with a percent of the prey pulled down of 70%. Further, the stoichiometry N in [7] and in [8] was 2 throughout.
Regarding “Uso1ΔCTR-His6x (pET21b-Uso1ΔCTR-His6x) (domain or fragment)”, in experiment [9], the stoichiometry N was found to be 2.

As a reminder, the stoichiometry N is a count of units in the complex or per binding partner.
